The values that follow are results of earlier work, collected in PMC5193440.

The target of the first data set is Cys30 (UniProt position 49, FFSFFCPHCYQ). The settings on record: reduced active site (dithiol form).
For orientation: pKa means the pH at which an ionisable group is half protonated. Regarding “DsbA (thiol:disulfide interchange protein, EcDsbA) (Escherichia coli)”, the pKa is 3.3 ± 0.09.

A further data set has as its system Cys. Particulars: not stated.
On to “DsbA1 (NmDsbA1) (Neisseria meningitidis)”, for which the pKa is 3.0.
For the substance “DsbA1 (WpDsbA1, alpha-DsbA1), wild type (Wolbachia pipientis)”, the pKa is listed as 4.7 ± 0.08.
For the substance DsbA (KpDsbA) (Klebsiella pneumoniae), the pKa is given as 3.2.
As to “DsbA (MtbDsbA, Rv2969c) (Mycobacterium tuberculosis)”, the pKa was 4.2 ± 0.2.
DsbA (SaDsbA) (Staphylococcus aureus): the pKa is given as 3.4 ± 0.07.
Consider “DsbA (SeDsbA) (Salmonella enterica (inferred from the abbreviation; the article only calls it an enterobacterial DsbA))”, for which the pKa is 3.3 ± 0.06.
As for DsbA (VcDsbA, TcpG) (Vibrio cholerae), the pKa is 5.1.
